In patent US20190185537A1 (AstraZeneca / MedImmune, published 2019) one finds cAMP EC50 (assay 1) data, which are given here for 8 molecules.

Numbered stars: 1 amine (or outer) side, 2 acyl side, 3 side chain; on linkers, the order of the positions; unused ones are H or OH. Side chains are listed from the residue outwards. Ends that are not written are not given here. * marks the point of attachment. γGlu = O=C(O)[C@H](CCC(=O)[*:2])N[*:1]; Palmitoyl = CCCCCCCCCCCCCCCC(=O)*

What all share (test): cell-based or functional assay
The target in test [1] is human glucagon receptor (human, UniProt P47871 26-477).
Chain of human glucagon receptor (P47871 26-477): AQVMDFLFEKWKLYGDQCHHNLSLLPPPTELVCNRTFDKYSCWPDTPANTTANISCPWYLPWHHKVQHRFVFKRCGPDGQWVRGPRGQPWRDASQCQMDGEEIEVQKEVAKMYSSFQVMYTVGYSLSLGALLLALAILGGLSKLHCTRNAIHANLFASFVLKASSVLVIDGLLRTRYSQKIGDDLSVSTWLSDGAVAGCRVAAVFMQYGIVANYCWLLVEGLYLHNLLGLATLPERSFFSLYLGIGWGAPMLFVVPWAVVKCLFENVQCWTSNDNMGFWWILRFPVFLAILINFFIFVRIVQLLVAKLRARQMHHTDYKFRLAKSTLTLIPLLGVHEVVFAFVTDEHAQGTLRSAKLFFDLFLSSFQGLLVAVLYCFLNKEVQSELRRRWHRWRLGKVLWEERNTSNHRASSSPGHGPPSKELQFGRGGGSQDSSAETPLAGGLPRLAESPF
For test [2], the target named is human GLP-1 receptor (human, UniProt P43220 24-463).
Chain of human GLP-1 receptor (P43220 24-463): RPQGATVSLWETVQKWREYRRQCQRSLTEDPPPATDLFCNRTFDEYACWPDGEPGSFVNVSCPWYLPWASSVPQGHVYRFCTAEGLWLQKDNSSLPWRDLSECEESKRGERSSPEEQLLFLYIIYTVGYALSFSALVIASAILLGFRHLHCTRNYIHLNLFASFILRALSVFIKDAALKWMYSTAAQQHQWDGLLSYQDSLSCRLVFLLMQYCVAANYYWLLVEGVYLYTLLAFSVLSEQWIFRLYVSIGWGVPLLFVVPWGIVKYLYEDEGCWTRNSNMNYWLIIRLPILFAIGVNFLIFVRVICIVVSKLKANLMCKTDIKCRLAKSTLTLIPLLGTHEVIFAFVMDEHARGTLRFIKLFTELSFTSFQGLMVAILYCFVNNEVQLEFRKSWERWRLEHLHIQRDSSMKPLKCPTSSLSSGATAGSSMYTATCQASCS
Test [3] concerns the target T1, human glucose-dependent insulinotropic peptide (gastric inhibitory polypeptide) receptor (human) (UniProt P48546).
T1 sequence (looked up): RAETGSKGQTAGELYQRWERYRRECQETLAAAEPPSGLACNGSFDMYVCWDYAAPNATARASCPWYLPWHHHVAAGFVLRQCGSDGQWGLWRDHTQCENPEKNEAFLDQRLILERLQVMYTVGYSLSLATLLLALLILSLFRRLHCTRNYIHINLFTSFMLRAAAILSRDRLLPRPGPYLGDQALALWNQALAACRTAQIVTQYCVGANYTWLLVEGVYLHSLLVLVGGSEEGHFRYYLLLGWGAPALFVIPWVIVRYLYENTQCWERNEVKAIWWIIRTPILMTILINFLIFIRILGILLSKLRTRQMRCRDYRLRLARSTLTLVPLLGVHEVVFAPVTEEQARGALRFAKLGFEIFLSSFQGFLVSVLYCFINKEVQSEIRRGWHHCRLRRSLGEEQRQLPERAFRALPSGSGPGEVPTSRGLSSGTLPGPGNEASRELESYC

B1: g717 (peptide)
peptide: HSQGTFTSDK([γGlu-Palmitoyl])SKYLDSRRAQDFVQWLEAGG-NH2
modifications: N-terminus assumed
SMILES: CCCCCCCCCCCCCCCC(=O)N[C@@H](CCC(=O)NCCCC[C@H](NC(=O)[C@H](CC(=O)O)NC(=O)[C@H](CO)NC(=O)[C@@H](NC(=O)[C@H](Cc1ccccc1)NC(=O)[C@@H](NC(=O)CNC(=O)[C@H](CCC(N)=O)NC(=O)[C@H](CO)NC(=O)[C@@H](N)Cc1c[nH]cn1)[C@@H](C)O)[C@@H](C)O)C(=O)N[C@@H](CO)C(=O)N[C@@H](CCCCN)C(=O)N[C@@H](Cc1ccc(O)cc1)C(=O)N[C@@H](CC(C)C)C(=O)N[C@@H](CC(=O)O)C(=O)N[C@@H](CO)C(=O)N[C@@H](CCCNC(=N)N)C(=O)N[C@@H](CCCNC(=N)N)C(=O)N[C@@H](C)C(=O)N[C@@H](CCC(N)=O)C(=O)N[C@@H](CC(=O)O)C(=O)N[C@@H](Cc1ccccc1)C(=O)N[C@H](C(=O)N[C@@H](CCC(N)=O)C(=O)N[C@@H](Cc1c[nH]c2ccccc12)C(=O)N[C@@H](CC(C)C)C(=O)N[C@@H](CCC(=O)O)C(=O)N[C@@H](C)C(=O)NCC(=O)NCC(N)=O)C(C)C)C(=O)O
As for B1, the figures for the cAMP EC50 (assay 1) in test [1], in test [2] and in test [3] were 0.455 pM, 5.77 pM and 1480 pM, respectively.

B2: g601 (peptide)
peptide: HSQGTFTSDYSKYK([γGlu-Palmitoyl])DSRRAQDFVQWLEAGG-NH2
modifications: N-terminus assumed
SMILES: CCCCCCCCCCCCCCCC(=O)N[C@@H](CCC(=O)NCCCC[C@H](NC(=O)[C@H](Cc1ccc(O)cc1)NC(=O)[C@H](CCCCN)NC(=O)[C@H](CO)NC(=O)[C@H](Cc1ccc(O)cc1)NC(=O)[C@H](CC(=O)O)NC(=O)[C@H](CO)NC(=O)[C@@H](NC(=O)[C@H](Cc1ccccc1)NC(=O)[C@@H](NC(=O)CNC(=O)[C@H](CCC(N)=O)NC(=O)[C@H](CO)NC(=O)[C@@H](N)Cc1c[nH]cn1)[C@@H](C)O)[C@@H](C)O)C(=O)N[C@@H](CC(=O)O)C(=O)N[C@@H](CO)C(=O)N[C@@H](CCCNC(=N)N)C(=O)N[C@@H](CCCNC(=N)N)C(=O)N[C@@H](C)C(=O)N[C@@H](CCC(N)=O)C(=O)N[C@@H](CC(=O)O)C(=O)N[C@@H](Cc1ccccc1)C(=O)N[C@H](C(=O)N[C@@H](CCC(N)=O)C(=O)N[C@@H](Cc1c[nH]c2ccccc12)C(=O)N[C@@H](CC(C)C)C(=O)N[C@@H](CCC(=O)O)C(=O)N[C@@H](C)C(=O)NCC(=O)NCC(N)=O)C(C)C)C(=O)O
In the case of B2, the cAMP EC50 (assay 1) was found to be 0.493 pM in test [1], 39.8 pM in test [2] and 74100 pM in test [3].

B3: g798 (peptide)
peptide: HSQGTFTSDK([γGlu-Palmitoyl])SKYLDSERARDFVAWLEAGG-NH2
modifications: N-terminus assumed
SMILES: CCCCCCCCCCCCCCCC(=O)N[C@@H](CCC(=O)NCCCC[C@H](NC(=O)[C@H](CC(=O)O)NC(=O)[C@H](CO)NC(=O)[C@@H](NC(=O)[C@H](Cc1ccccc1)NC(=O)[C@@H](NC(=O)CNC(=O)[C@H](CCC(N)=O)NC(=O)[C@H](CO)NC(=O)[C@@H](N)Cc1c[nH]cn1)[C@@H](C)O)[C@@H](C)O)C(=O)N[C@@H](CO)C(=O)N[C@@H](CCCCN)C(=O)N[C@@H](Cc1ccc(O)cc1)C(=O)N[C@@H](CC(C)C)C(=O)N[C@@H](CC(=O)O)C(=O)N[C@@H](CO)C(=O)N[C@@H](CCC(=O)O)C(=O)N[C@@H](CCCNC(=N)N)C(=O)N[C@@H](C)C(=O)N[C@@H](CCCNC(=N)N)C(=O)N[C@@H](CC(=O)O)C(=O)N[C@@H](Cc1ccccc1)C(=O)N[C@H](C(=O)N[C@@H](C)C(=O)N[C@@H](Cc1c[nH]c2ccccc12)C(=O)N[C@@H](CC(C)C)C(=O)N[C@@H](CCC(=O)O)C(=O)N[C@@H](C)C(=O)NCC(=O)NCC(N)=O)C(C)C)C(=O)O
Consider B3, for which the cAMP EC50 (assay 1) in test [1] was 0.51 pM; in test [2], 9.07 pM; in test [3] it was 1510 pM.

B4: g823 (peptide)
peptide: HSQGTFTSDYSRYLDSK([γGlu-Palmitoyl])RARDFVEWLVAGG-NH2
modifications: N-terminus assumed
SMILES: CCCCCCCCCCCCCCCC(=O)N[C@@H](CCC(=O)NCCCC[C@H](NC(=O)[C@H](CO)NC(=O)[C@H](CC(=O)O)NC(=O)[C@H](CC(C)C)NC(=O)[C@H](Cc1ccc(O)cc1)NC(=O)[C@H](CCCNC(=N)N)NC(=O)[C@H](CO)NC(=O)[C@H](Cc1ccc(O)cc1)NC(=O)[C@H](CC(=O)O)NC(=O)[C@H](CO)NC(=O)[C@@H](NC(=O)[C@H](Cc1ccccc1)NC(=O)[C@@H](NC(=O)CNC(=O)[C@H](CCC(N)=O)NC(=O)[C@H](CO)NC(=O)[C@@H](N)Cc1c[nH]cn1)[C@@H](C)O)[C@@H](C)O)C(=O)N[C@@H](CCCNC(=N)N)C(=O)N[C@@H](C)C(=O)N[C@@H](CCCNC(=N)N)C(=O)N[C@@H](CC(=O)O)C(=O)N[C@@H](Cc1ccccc1)C(=O)N[C@H](C(=O)N[C@@H](CCC(=O)O)C(=O)N[C@@H](Cc1c[nH]c2ccccc12)C(=O)N[C@@H](CC(C)C)C(=O)N[C@H](C(=O)N[C@@H](C)C(=O)NCC(=O)NCC(N)=O)C(C)C)C(C)C)C(=O)O
Turning to B4, the cAMP EC50 (assay 1) in test [1] amounted to 9.48 pM; in test [2] it was 97.3 pM; in test [3], 84200 pM.

B5: g824 (peptide)
peptide: HSQGTFTSDYSKYK([γGlu-Palmitoyl])DSRRARDFVEWLEAGG-NH2
modifications: N-terminus assumed
SMILES: CCCCCCCCCCCCCCCC(=O)N[C@@H](CCC(=O)NCCCC[C@H](NC(=O)[C@H](Cc1ccc(O)cc1)NC(=O)[C@H](CCCCN)NC(=O)[C@H](CO)NC(=O)[C@H](Cc1ccc(O)cc1)NC(=O)[C@H](CC(=O)O)NC(=O)[C@H](CO)NC(=O)[C@@H](NC(=O)[C@H](Cc1ccccc1)NC(=O)[C@@H](NC(=O)CNC(=O)[C@H](CCC(N)=O)NC(=O)[C@H](CO)NC(=O)[C@@H](N)Cc1c[nH]cn1)[C@@H](C)O)[C@@H](C)O)C(=O)N[C@@H](CC(=O)O)C(=O)N[C@@H](CO)C(=O)N[C@@H](CCCNC(=N)N)C(=O)N[C@@H](CCCNC(=N)N)C(=O)N[C@@H](C)C(=O)N[C@@H](CCCNC(=N)N)C(=O)N[C@@H](CC(=O)O)C(=O)N[C@@H](Cc1ccccc1)C(=O)N[C@H](C(=O)N[C@@H](CCC(=O)O)C(=O)N[C@@H](Cc1c[nH]c2ccccc12)C(=O)N[C@@H](CC(C)C)C(=O)N[C@@H](CCC(=O)O)C(=O)N[C@@H](C)C(=O)NCC(=O)NCC(N)=O)C(C)C)C(=O)O
For the molecule B5, the cAMP EC50 (assay 1) in test [1] amounted to 1.05 pM; in test [2] it was 47.1 pM; in test [3], 57400 pM.

B6: g780 (peptide)
peptide: HSQGTFTSDYSKYK([γGlu-Palmitoyl])DSRRARDFVAWLEAGG-NH2
modifications: N-terminus assumed
SMILES: CCCCCCCCCCCCCCCC(=O)N[C@@H](CCC(=O)NCCCC[C@H](NC(=O)[C@H](Cc1ccc(O)cc1)NC(=O)[C@H](CCCCN)NC(=O)[C@H](CO)NC(=O)[C@H](Cc1ccc(O)cc1)NC(=O)[C@H](CC(=O)O)NC(=O)[C@H](CO)NC(=O)[C@@H](NC(=O)[C@H](Cc1ccccc1)NC(=O)[C@@H](NC(=O)CNC(=O)[C@H](CCC(N)=O)NC(=O)[C@H](CO)NC(=O)[C@@H](N)Cc1c[nH]cn1)[C@@H](C)O)[C@@H](C)O)C(=O)N[C@@H](CC(=O)O)C(=O)N[C@@H](CO)C(=O)N[C@@H](CCCNC(=N)N)C(=O)N[C@@H](CCCNC(=N)N)C(=O)N[C@@H](C)C(=O)N[C@@H](CCCNC(=N)N)C(=O)N[C@@H](CC(=O)O)C(=O)N[C@@H](Cc1ccccc1)C(=O)N[C@H](C(=O)N[C@@H](C)C(=O)N[C@@H](Cc1c[nH]c2ccccc12)C(=O)N[C@@H](CC(C)C)C(=O)N[C@@H](CCC(=O)O)C(=O)N[C@@H](C)C(=O)NCC(=O)NCC(N)=O)C(C)C)C(=O)O
Turning to B6, the cAMP EC50 (assay 1) in test [1] was determined as 0.792 pM; in test [2], 12 pM; in test [3], 64000 pM.

HSQGTFTSDYSKYLDSERARDFVAWLEAGG-NH2 [g840]: the cAMP EC50 (assay 1) in test [1] was 5.3 pM; in test [2] it was 145 pM; in test [3], 102000 pM.

B7: g867 (peptide)
peptide: HSQGTFTSDYSKYLDSK([γGlu-Palmitoyl])RARDFVAWLVAGG-NH2
modifications: N-terminus assumed
SMILES: CCCCCCCCCCCCCCCC(=O)N[C@@H](CCC(=O)NCCCC[C@H](NC(=O)[C@H](CO)NC(=O)[C@H](CC(=O)O)NC(=O)[C@H](CC(C)C)NC(=O)[C@H](Cc1ccc(O)cc1)NC(=O)[C@H](CCCCN)NC(=O)[C@H](CO)NC(=O)[C@H](Cc1ccc(O)cc1)NC(=O)[C@H](CC(=O)O)NC(=O)[C@H](CO)NC(=O)[C@@H](NC(=O)[C@H](Cc1ccccc1)NC(=O)[C@@H](NC(=O)CNC(=O)[C@H](CCC(N)=O)NC(=O)[C@H](CO)NC(=O)[C@@H](N)Cc1c[nH]cn1)[C@@H](C)O)[C@@H](C)O)C(=O)N[C@@H](CCCNC(=N)N)C(=O)N[C@@H](C)C(=O)N[C@@H](CCCNC(=N)N)C(=O)N[C@@H](CC(=O)O)C(=O)N[C@@H](Cc1ccccc1)C(=O)N[C@H](C(=O)N[C@@H](C)C(=O)N[C@@H](Cc1c[nH]c2ccccc12)C(=O)N[C@@H](CC(C)C)C(=O)N[C@H](C(=O)N[C@@H](C)C(=O)NCC(=O)NCC(N)=O)C(C)C)C(C)C)C(=O)O
With B7, the cAMP EC50 (assay 1) worked out at 7.04 pM in test [1], 44.8 pM in test [2] and 41700 pM in test [3].
